Laboratory results published in paper PMC11401214, “A new generation of nanobody research tools using improved mass spectrometry-based discovery methods” (The Journal of Biological Chemistry, 2024).
Residue numbers refer to the chain shown, from its start.

B1: GST-7 (VHH)
VHH: QVTLVESGGGLVQAGGSLGLSCTASGHTFNPYAMAWFRQAPGKEREFVAAIGWRVGTTYYTDSVKGRFTISADNAKNTAYLQMNSLKPEDTAVYYCAAGFGRSPSNYDYWGQGTQVTVS
notes: anti-GST nanobody; source: ArcticExpress (DE3) cells, purified from periplasm
B2: LaTdT-2 (VHH)
VHH: DVQLVESGGGLVQAGDSLRLSCAFSGSAFDTYAMGWFRQAPGKEREFVSAITWSGGNTYYADSAKGRFTISRDDAKNTVYLQMNSLKPEDAATYYCAANRYGSSWSPLTKMGQYEHWGQGTQVTVS
B3: LaTdT-45 (VHH)
VHH: B2 VHH with D1Q
B4: GST-6 (VHH)
VHH: QVQLVESGGGLVQPGESLRLSCAASGFTFSSHRMNWLRQAPGKGLEWVSTTSTGGGSAATYYVNSVKGRFTVSRDDAKNMLYLQMNSLKPEDTARYYCAIPESPGRPFGSTWSEYRYWGQGTQVTVS
notes: as for B1
B5: LaTdT-38 (VHH)
VHH: QVQLVESGGGLVQAGGSLRLSCAASGRSFSGNNMGWFRQVSGTEREFVAAISWSGLITEYSGAVKGRFTISRDNAKNTLYLQMNSLKPEDTAVYSCAADGRDVQLPGRSEYDYNYWGQGTQVTVS
B6: GST-1 (VHH)
VHH: QVQLVESGGGLVQAGGSLRLSCVCVGRAFGVYAMGWFRQSPGKEREFVAAITWNGGSIDYADSVKGRFAISRDNPPNTVYLQMNSLKPEDTAVYYCAKYRNNYYNEAPNSWGQGTQVTVS
notes: as for B1
B7: GST-2 (VHH)
VHH: B6 VHH with C24V, V31A, D59T, Q82E, R100T, N109K
notes: as for B1
B8: GST-4 (VHH)
VHH: B6 VHH
notes: as for B1
B9: LaGIgG-4 (VHH)
VHH: DVQLVESGGGLVQAGGSLRLSCAASGITFSRSTMGWHRQAPGKRRELVASINAVGSTNYVPSVKGRFTISRDNAKNTVTLQMNSLEPEDTGVYYCVSDPYDDPRRYWGPGTQVTVS
B10: LaGIgG-12 (VHH)
VHH: QVQLVESGGGLVQAGGSLRLSCSASGRTLSTYAMGWFRQAPGKEREFVAVISRSGGSTHYVESVKGRFTIVRDNAKNTVYLQMDSLKPEDTAVYYCAVPKYTDYALSPEDFGSWGQGTQVTVS
B11: GST-8 (VHH)
VHH: QVQLVESGGDLVQAGGSLRLSCAASGSISAAYDMGWFRQVPGKQRELVASLGSGGFSAYADSVKGRFTVSRDNAKNTVYLQMNSLKPEDTGVYYCAARTPFDIWTTGRWGEYDYWGQGTQVTVS
notes: as for B1
B12: LaTdT-1 (VHH)
VHH: DVQLVESGGGLVPAGGSLRLSCAASTSDLFSRYTMGWFRQAPGKEREFVSAITGMSSMTKYADSVKGRFTVSRDNRKATMYLQMDSLKPEDTAVYYCAAHTTTAAATPQSMGLMLKYDHWGQGTEVTVS
B13: LaRIgG-7 (VHH)
VHH: DVQLVESGGGLVQTGGSLRLSCAASGRTFTTYDLAWFRQAPGKERECVAAVSRIGTTYYPDSVKGRFTISTDTAQNTVYLQMNSLKPEDTAVYYCASAKFGSRWIRAKTSEGNYDDWGRGTQVTVS
B14: LaRIgG-1 (VHH)
VHH: QVQLAESGGGLVQPGGSLRLSCVVSGGTFGRYDMGWFRQAPGKEREFVAAISREVTTNYGDSVRGRFTISRDNAENTVHLLMNSLKPEDTAVYYCAADDAHRYSGTYYLSQDFRYTYWGQGTQVTVS
B15: LaRIgG-2 (VHH)
VHH: QVQLVESGGGLVQAGGSLRLSCVASGGTFSDWPKGWFRQAPGKEREFVAAINWNGSGTTYADSVKGRFTISRDNAKNAVYLEMNSLKPEDTAVYSCASTFGGIRSVGTNDYWGRGTQVTVS
B16: LaTdT-39 (VHH)
VHH: QVQLVESGGGLVQAGESLQLSCAASGGTLRDAIVGWFRQARGKEREFLASITWSGLSTNYSDSVKGRFVISRANPQNTAYLQMNSLKPEDTAIYYCAAKIGAFGLADEFRTVPQYDSWGQGTQVTVS
B17: LaTdT-9 (VHH)
VHH: QVQLVESGGGLVQPGDSLMLSCVISGHTFTNFRMGWFRQAPGKEREFVAGITWLFGRTDYADSVQGRFTISRDKGKDTMYLQMDSLKPEDTGVYTCAVQSGVLAYPMREGFYDIWGQGTHVTVS
B18: GST-3 (VHH)
VHH: QVQLVESGGGLVQPGGSLRLSCADSGRIFSDYTMAWFRQPPGKEREFVASINRSGLGTYYADSVKGRFTVTRDNAKNMVYLQMNSLTVEDTAVYYCGARWGGSYIDPREGMYDFRGQGTQVTVS
notes: as for B1
B19: GST-5 (VHH)
VHH: QVQLVESGGGLVQAGGSLRLSCVVTGRAFGAYAMGWFRQSPGKEREFVAAITWNGGTTNYADSVKGRFAISRDNPPNTVYLQMNSLKPEDTAVYYCAKYPNNFWHNEAPDSWGRGTQVTVS
notes: as for B1
B20: LaTdT-10 (VHH)
VHH: DVQLVESGGRLVQDGGSLRLSCEVSGGTFDTFAMGWFRQAPGKEREFVSAITWSGGNTYYGDSVKGRFTISRNNVKRTVYLQMISLKPEDTGVYYCAADPYGSSWSPLQKEGQYDYWGQGTQVTVS
B21: LaTdT-44 (VHH)
VHH: B20 VHH with D1Q
B22: LaTdT-8 (VHH)
VHH: QVQLVESGGGLVQAGDSLRLSCADAGLPYAFNHYGMAWFRQAPGKEREFVAGTSGGMTYYGDSVPDRFSFSRDNDKKTVHLHINSLKPEDTAVYYCAARLGGRYEDASDYDVWGQGTQVTVS

Key:
Assay in all cases: SPR; Biacore 8K; antigen immobilised on CM5 chip by amine coupling at 1 ug/ml (tdTomato) or 5 ug/ml (GST, IgGs) in 10 mM sodium acetate pH 5.5; nanobody injected in single-cycle kinetics at 0.1-10 nM; 20 mM Na-Hepes pH 7.4, 150 mM NaCl, 0.05% Tween 20; Langmuir 1:1 model, RIgG-1 and GIgG-4 fit to a two-step binding model
[1] = target: T1, GST (Schistosoma japonicum (assumed, …, UniProt P08515 = GST)); settings: both partners purified
T1 construct: GST (glutathione S-transferase), the expression fusion protein tag; the methods describe only the production of GST-TEV protease; the 'GST' immobilised for SPR may be that fusion

[2] = target: tdTomato; parameters: kon of step 1 (2-state binding model) / koff of step 1 (2-state binding model) / koff of step 2 (2-state binding model): unit not given here
[3] = target: goat IgG (goat); parameters: kon of step 1 (2-state binding model) / koff of step 1 (2-state binding model) / koff of step 2 (2-state binding model): unit not given here
[4] = target: rabbit IgG (rabbit); parameters: kon of step 1 (2-state binding model) / koff of step 1 (2-state binding model) / koff of step 2 (2-state binding model): unit not given here

T1 sequence (P08515 whole entry, looked up, the tested form may be a part): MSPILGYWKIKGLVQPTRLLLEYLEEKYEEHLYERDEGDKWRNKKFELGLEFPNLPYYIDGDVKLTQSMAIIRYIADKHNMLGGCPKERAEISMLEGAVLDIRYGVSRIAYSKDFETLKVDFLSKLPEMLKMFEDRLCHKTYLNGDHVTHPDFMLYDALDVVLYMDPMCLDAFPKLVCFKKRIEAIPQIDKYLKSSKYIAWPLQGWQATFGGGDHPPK

| Binder | Kd [1] | Kd [2] | other results |
| --- | --- | --- | --- |
| B1 | 0.17 nM | – | – |
| B2 | – | 0.0035 nM | – |
| B3 | – | 0.028 nM | – |
| B4 | 0.15 nM | – | – |
| B5 | – | 0.057 nM | – |
| B6 | 0.085 nM | – | – |
| B7 | 0.064 nM | – | – |
| B8 | 0.26 nM | – | – |
| B9 | – | – | Kd [3]: 0.82 nM; koff of step 1 (2-state binding model) [3]: 0.011; koff of step 2 (2-state binding model) [3]: 0.00033; kon of step 1 (2-state binding model) [3]: 2.2e+06; kon of step 2 (2-state binding model) [3]: 0.0018 s⁻¹ |
| B10 | – | – | Kd [3]: 0.49 nM |
| B11 | 0.13 nM | – | – |
| B12 | – | < 0.018 nM | – |
| B13 | – | – | Kd [4]: 0.053 nM |
| B14 | – | – | Kd [4]: 0.36 nM; koff of step 1 (2-state binding model) [4]: 0.0034; koff of step 2 (2-state binding model) [4]: 0.00026; kon of step 1 (2-state binding model) [4]: 890000; kon of step 2 (2-state binding model) [4]: 0.0026 s⁻¹ |
| B15 | – | – | Kd [4]: < 0.014 nM |
| B16 | – | 0.0059 nM | – |
| B17 | – | 0.084 nM | – |
| B18 | 0.35 nM | – | – |
| B19 | 0.13 nM | – | – |
| B20 | – | 0.052 nM | – |
| B21 | – | 0.044 nM | – |
| B22 | – | 0.037 nM | – |
